Data as given in paper PMC3605791 (Nature structural & molecular biology, 2012).

B1: GSTVAMP7 residues 1–160 (domain or fragment)
chain: MAILFAVVARGTTILAKHAWCGGNFLEVTEQILAKIPSENNKLTYSHGNYLFHYICQDRIVYLCITDDDFERSRAFSFLNEVKKRFQTTYGSRAQTALPYAMNSEFSSVLAAQLKHHSENKSLDKVMETQAQVDELKGIMVRNIDLVAQRGERLELLIDK
B2: VAMP7 D69A E71F S73D (domain or fragment)
chain: MAILFAVVARGTTILAKHAWCGGNFLEVTEQILAKIPSENNKLTYSHGNYLFHYICQDRIVYLCITDDAFFRDRAFSFLNEVKKRFQTTYGSRAQTALPYAMNSEFSSVLAAQLKHHSENKSLDKVMETQAQVDELKGIMVRNIDLVAQRGERLELLIDKTENLVDSSVTFKTTSRNLARAMCMKNIK
B3: VAMP7 CD (1–188) (domain or fragment)
chain: MAILFAVVARGTTILAKHAWCGGNFLEVTEQILAKIPSENNKLTYSHGNYLFHYICQDRIVYLCITDDDFERSRAFSFLNEVKKRFQTTYGSRAQTALPYAMNSEFSSVLAAQLKHHSENKSLDKVMETQAQVDELKGIMVRNIDLVAQRGERLELLIDKTENLVDSSVTFKTTSRNLARAMCMKNIK
B4: VAMP7 R72A (domain or fragment)
chain: MAILFAVVARGTTILAKHAWCGGNFLEVTEQILAKIPSENNKLTYSHGNYLFHYICQDRIVYLCITDDDFEASRAFSFLNEVKKRFQTTYGSRAQTALPYAMNSEFSSVLAAQLKHHSENKSLDKVMETQAQVDELKGIMVRNIDLVAQRGERLELLIDKTENLVDSSVTFKTTSRNLARAMCMKNIK

Assays:
[1] = biological target: VAMP7 longin domain (Mus musculus) (UniProt P70280); details: cited from earlier work
Varp(658–921)His6 [2] = biological target: T1, Varp(658–921)His6 (human, UniProt Q96NW4 658-921); test: pull-down
T1 sequence (Q96NW4 658-921): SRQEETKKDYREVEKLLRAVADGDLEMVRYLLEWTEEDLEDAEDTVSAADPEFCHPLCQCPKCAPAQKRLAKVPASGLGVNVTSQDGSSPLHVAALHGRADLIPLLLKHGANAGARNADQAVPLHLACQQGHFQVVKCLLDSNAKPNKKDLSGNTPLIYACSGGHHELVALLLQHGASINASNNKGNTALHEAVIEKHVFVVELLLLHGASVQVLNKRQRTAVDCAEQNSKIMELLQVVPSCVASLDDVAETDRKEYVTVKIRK

Varp(658–921)His6 [3] = biological target: T1, Varp(658–921)His6; test: ITC

| Molecule | Kd (Varp(658–921)His6 [3]) [µM] | also measured |
| --- | --- | --- |
| Varp (construct not stated, KD with Rab38:GTP or Rab32:GTP) (from UniProt Q96NW4 1-1050) (natural protein) |  | Kd (Rab38:GTP or Rab32:GTP): 2 to 5 µM |
| Hrb (from UniProt P52594) |  | Kd [1]: 10 µM |
| B1 |  | binding result (Varp(658–921)His6 [2]): binds |
| B2 | > 300 |  |
| B3 | 2.3 |  |
| B4 | > 300 |  |
